{"source": "paper PMC4081072", "about": "“Structure and semi-sequence-specific RNA binding of Nrd1”", "conditions_in_all_cases": "protein: recombinant; tags: C-terminal His6; label: 5' fluorescein or TAMRA (FA); unlabeled (NMR)", "key": {"Nrd1 307-491 K380A": {"target": "T1, Nrd1 307-491 K380A (Saccharomyces cerevisiae, UniProt P53617 307-491, K380A)", "T1 sequence": "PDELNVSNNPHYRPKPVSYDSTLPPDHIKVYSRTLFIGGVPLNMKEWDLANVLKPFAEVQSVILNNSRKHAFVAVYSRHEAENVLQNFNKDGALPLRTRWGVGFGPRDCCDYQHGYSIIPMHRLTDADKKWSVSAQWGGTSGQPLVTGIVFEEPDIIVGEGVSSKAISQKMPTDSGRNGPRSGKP", "assay": "fluorescence anisotropy; text says binding abolished; FA: 10 nM RNA, 50 mM sodium phosphate pH 8, 150 mM NaCl, 10 mM beta-mercaptoethanol, 20 C (protein stock in 300 mM NaCl); NMR: same buffer with 300 mM NaCl, 20"}, "Nrd1 307-491 N349A": {"target": "T2, Nrd1 307-491 N349A (Saccharomyces cerevisiae, UniProt P53617 307-491, N349A)", "T2 sequence": "T1 sequence with N43A, A74K", "assay": "fluorescence anisotropy; FA: 10 nM RNA, 50 mM sodium phosphate pH 8, 150 mM NaCl, 10 mM beta-mercaptoethanol, 20 C (protein stock in 300 mM NaCl); NMR: same buffer with 300 mM NaCl, 20"}, "Nrd1 307-491 Y382A": {"target": "T3, Nrd1 307-491 Y382A (Saccharomyces cerevisiae, UniProt P53617 307-491, Y382A)", "T3 sequence": "T1 sequence with A74K, Y76A", "assay": "fluorescence anisotropy; FA: 10 nM RNA, 50 mM sodium phosphate pH 8, 150 mM NaCl, 10 mM beta-mercaptoethanol, 20 C (protein stock in 300 mM NaCl); NMR: same buffer with 300 mM NaCl, 20"}, "Nrd1 307-491 G409A": {"target": "T4, Nrd1 307-491 G409A (Saccharomyces cerevisiae, UniProt P53617 307-491, G409A)", "T4 sequence": "T1 sequence with A74K, G103A", "assay": "fluorescence anisotropy; FA: 10 nM RNA, 50 mM sodium phosphate pH 8, 150 mM NaCl, 10 mM beta-mercaptoethanol, 20 C (protein stock in 300 mM NaCl); NMR: same buffer with 300 mM NaCl, 20"}, "Nrd1 307-491 T340A": {"target": "T5, Nrd1 307-491 T340A (Saccharomyces cerevisiae, UniProt P53617 307-491, T340A)", "T5 sequence": "T1 sequence with T34A, A74K", "assay": "fluorescence anisotropy; FA: 10 nM RNA, 50 mM sodium phosphate pH 8, 150 mM NaCl, 10 mM beta-mercaptoethanol, 20 C (protein stock in 300 mM NaCl); NMR: same buffer with 300 mM NaCl, 20"}, "Nrd1 307-491 R405A": {"target": "T6, Nrd1 307-491 R405A (Saccharomyces cerevisiae, UniProt P53617 307-491, R405A)", "T6 sequence": "T1 sequence with A74K, R99A", "assay": "fluorescence anisotropy; FA: 10 nM RNA, 50 mM sodium phosphate pH 8, 150 mM NaCl, 10 mM beta-mercaptoethanol, 20 C (protein stock in 300 mM NaCl); NMR: same buffer with 300 mM NaCl, 20"}}, "note": "Changes are numbered by the printed parent chain."}
{"binder": "GUAA (ssRNA)", "values": [{"measurement": "Kd", "setting": "Nrd1 307-491 K380A", "value": "442 ± 24.7", "unit": "µM"}, {"measurement": "Kd", "setting": "Nrd1 307-491 N349A", "value": "10.2 ± 0.5", "unit": "µM"}, {"measurement": "Kd", "setting": "Nrd1 307-491 Y382A", "value": "32.1 ± 1.3", "unit": "µM"}, {"measurement": "Kd", "setting": "Nrd1 307-491 G409A", "value": "157 ± 7.7", "unit": "µM"}, {"measurement": "Kd", "setting": "Nrd1 307-491 T340A", "value": "153 ± 32.8", "unit": "µM"}, {"measurement": "Kd", "setting": "Nrd1 307-491 R405A", "value": "17.3 ± 0.9", "unit": "µM"}]}
